Assay results published in paper PMC314469, “Protein Interaction Networks by Proteome Peptide Scanning” (PLoS Biology, 2004).

Experiments:
[1] = target: endophilin SH3 (SH3G2_HUMAN), Q99962; test: SPOT array
[2] = target: T1, amphyphisin SH3 (AMPH_HUMAN), P49418; test: SPOT array
T1 chain: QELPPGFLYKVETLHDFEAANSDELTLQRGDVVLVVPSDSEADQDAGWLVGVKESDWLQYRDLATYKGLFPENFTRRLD

B1: P98161 2194-2207 (peptide)
chain: SSQRPGRPARVALP
normalised SPOT signal, Boehringer light units (BLU); mean over the file's lines of this peptide [1]: 13500
normalised SPOT signal, Boehringer light units (BLU); mean over the file's lines of this peptide [2]: 2220

B2: Q9UIG2 1726-1739 (peptide)
chain: SALRPKRPETPKQT
normalised SPOT signal, Boehringer light units (BLU); mean over the file's lines of this peptide [1]: 723
normalised SPOT signal, Boehringer light units (BLU); mean over the file's lines of this peptide [2]: 588

B3: Q9NV38 3-16 (peptide)
chain: RVLSLLRPWRPLRA
normalised SPOT signal, Boehringer light units (BLU); mean over the file's lines of this peptide [1]: 366
normalised SPOT signal, Boehringer light units (BLU); mean over the file's lines of this peptide [2]: 1430

B4: Q9NQ53 86-99 (peptide)
chain: SDREPTRPPRPILQ
normalised SPOT signal, Boehringer light units (BLU); mean over the file's lines of this peptide [1]: 52.9
normalised SPOT signal, Boehringer light units (BLU); mean over the file's lines of this peptide [2]: 3890

B5: O00763 939-952 (peptide)
chain: RVKYIKRPGAVLEA
normalised SPOT signal, Boehringer light units (BLU); mean over the file's lines of this peptide [1]: 36.2
normalised SPOT signal, Boehringer light units (BLU); mean over the file's lines of this peptide [2]: 27.1

B6: Q92536 412-425 (peptide)
chain: RWKEPKRPRPLKLS
normalised SPOT signal, Boehringer light units (BLU); mean over the file's lines of this peptide [1]: 419
normalised SPOT signal, Boehringer light units (BLU); mean over the file's lines of this peptide [2]: 56.9

B7: O43193 136-149 (peptide)
chain: RYLAISRPLRARVL
normalised SPOT signal, Boehringer light units (BLU); mean over the file's lines of this peptide [1]: 943
normalised SPOT signal, Boehringer light units (BLU); mean over the file's lines of this peptide [2]: 1320

B8: Q9Y4G2 445-458 (peptide)
chain: SEDDFYRPSREQPL
normalised SPOT signal, Boehringer light units (BLU); mean over the file's lines of this peptide [1]: 92.5
normalised SPOT signal, Boehringer light units (BLU); mean over the file's lines of this peptide [2]: 142

B9: O76074 102-115 (peptide)
chain: SASEFDRPLRPIVV
normalised SPOT signal, Boehringer light units (BLU); mean over the file's lines of this peptide [1]: 54
normalised SPOT signal, Boehringer light units (BLU); mean over the file's lines of this peptide [2]: 131

B10: Q12882 910-923 (peptide)
chain: SSFIPKRPIPTIKD
normalised SPOT signal, Boehringer light units (BLU); mean over the file's lines of this peptide [1]: 514
normalised SPOT signal, Boehringer light units (BLU); mean over the file's lines of this peptide [2]: 17.6

B11: Q9Y3X0 319-333 (peptide)
chain: AWARPPKPPTFGEF
normalised SPOT signal, Boehringer light units (BLU); mean over the file's lines of this peptide [1]: 716
normalised SPOT signal, Boehringer light units (BLU); mean over the file's lines of this peptide [2]: 21.8

B12: Q9UL65 458-472 (peptide)
chain: SSTPPPRPPVLEEW
normalised SPOT signal, Boehringer light units (BLU); mean over the file's lines of this peptide [1]: 110
normalised SPOT signal, Boehringer light units (BLU); mean over the file's lines of this peptide [2]: 29.8

B13: Q9BZH6 185-199 (peptide)
chain: SDFSPSKPPSGPGK
normalised SPOT signal, Boehringer light units (BLU); mean over the file's lines of this peptide [1]: 63.8
normalised SPOT signal, Boehringer light units (BLU); mean over the file's lines of this peptide [2]: 52

B14: Q9BTX9 18-31 (peptide)
chain: AWQQLRRPEASETL
normalised SPOT signal, Boehringer light units (BLU); mean over the file's lines of this peptide [1]: 15.9
normalised SPOT signal, Boehringer light units (BLU); mean over the file's lines of this peptide [2]: 29.3

B15: P09529 57-70 (peptide)
chain: SSGGFRRPEELGRV
normalised SPOT signal, Boehringer light units (BLU); mean over the file's lines of this peptide [1]: 11.4
normalised SPOT signal, Boehringer light units (BLU); mean over the file's lines of this peptide [2]: 41.8

B16: Q96BQ9 4-18 (peptide)
chain: SAPPPPRPPEEPAP
normalised SPOT signal, Boehringer light units (BLU); mean over the file's lines of this peptide [1]: 65.5
normalised SPOT signal, Boehringer light units (BLU); mean over the file's lines of this peptide [2]: 85.5

B17: P28907 274-287 (peptide)
chain: SSKNIYRPDKFLQS
normalised SPOT signal, Boehringer light units (BLU); mean over the file's lines of this peptide [1]: 63.6
normalised SPOT signal, Boehringer light units (BLU); mean over the file's lines of this peptide [2]: 34

B18: Q96DQ6 175-188 (peptide)
chain: RVLHLRRPGGPPHV
normalised SPOT signal, Boehringer light units (BLU); mean over the file's lines of this peptide [1]: 55.3
normalised SPOT signal, Boehringer light units (BLU); mean over the file's lines of this peptide [2]: 21.6

B19: Q9NPI5 198-211 (peptide)
chain: SAPSPARPARTQGP
normalised SPOT signal, Boehringer light units (BLU); mean over the file's lines of this peptide [1]: 4590
normalised SPOT signal, Boehringer light units (BLU); mean over the file's lines of this peptide [2]: 4310

B20: Q14764 501-514 (peptide)
chain: SAGRPKRPHARRAL
normalised SPOT signal, Boehringer light units (BLU); mean over the file's lines of this peptide [1]: 702
normalised SPOT signal, Boehringer light units (BLU); mean over the file's lines of this peptide [2]: 24.8

B21: Q9BYH1 392-405 (peptide)
chain: SSNFPRRPDSGDVT
normalised SPOT signal, Boehringer light units (BLU); mean over the file's lines of this peptide [1]: 67.7
normalised SPOT signal, Boehringer light units (BLU); mean over the file's lines of this peptide [2]: 29.9

B22: Q99754 28-41 (peptide)
chain: SASGIKRPMASEVP
normalised SPOT signal, Boehringer light units (BLU); mean over the file's lines of this peptide [1]: 81.2
normalised SPOT signal, Boehringer light units (BLU); mean over the file's lines of this peptide [2]: 17.6

B23: Q8WU34 71-84 (peptide)
chain: AVWSPRRPTATRDP
normalised SPOT signal, Boehringer light units (BLU); mean over the file's lines of this peptide [1]: 97.9
normalised SPOT signal, Boehringer light units (BLU); mean over the file's lines of this peptide [2]: 36.2

B24: Q96JP2 1105-1118 (peptide)
chain: SDSKPKRPQPSREI
normalised SPOT signal, Boehringer light units (BLU); mean over the file's lines of this peptide [1]: 44.6
normalised SPOT signal, Boehringer light units (BLU); mean over the file's lines of this peptide [2]: 13.6

B25: Q9UHD4 30-43 (peptide)
chain: SAPPPQRPFRVSDH
normalised SPOT signal, Boehringer light units (BLU); mean over the file's lines of this peptide [1]: 5270
normalised SPOT signal, Boehringer light units (BLU); mean over the file's lines of this peptide [2]: 4530

B26: Q9H677 423-436 (peptide)
chain: SEAAPRRPEATAAP
normalised SPOT signal, Boehringer light units (BLU); mean over the file's lines of this peptide [1]: 16.1
normalised SPOT signal, Boehringer light units (BLU); mean over the file's lines of this peptide [2]: 26.1

B27: Q9NP17 122-135 (peptide)
chain: RYLILKRPGFQEHD
normalised SPOT signal, Boehringer light units (BLU); mean over the file's lines of this peptide [1]: 228
normalised SPOT signal, Boehringer light units (BLU); mean over the file's lines of this peptide [2]: 23.9

B28: Q9P2Q1 364-377 (peptide)
chain: SSRAPPRPAKTTDP
normalised SPOT signal, Boehringer light units (BLU); mean over the file's lines of this peptide [1]: 279
normalised SPOT signal, Boehringer light units (BLU); mean over the file's lines of this peptide [2]: 378

B29: Q9UD05 286-299 (peptide)
chain: RVPIPPRPVKPDYR
normalised SPOT signal, Boehringer light units (BLU); mean over the file's lines of this peptide [1]: 6030
normalised SPOT signal, Boehringer light units (BLU); mean over the file's lines of this peptide [2]: 646

B30: Q07912 741-754 (peptide)
chain: RVPIPPRPTRPHVQ
normalised SPOT signal, Boehringer light units (BLU); mean over the file's lines of this peptide [1]: 19700
normalised SPOT signal, Boehringer light units (BLU); mean over the file's lines of this peptide [2]: 9630

B31: Q92817 837-850 (peptide)
chain: AVSAPKRPRVAPLQ
normalised SPOT signal, Boehringer light units (BLU); mean over the file's lines of this peptide [1]: 240
normalised SPOT signal, Boehringer light units (BLU); mean over the file's lines of this peptide [2]: 59

B32: Q96DL6 316-329 (peptide)
chain: SAPGPRRPAPALLA
normalised SPOT signal, Boehringer light units (BLU); mean over the file's lines of this peptide [1]: 3420
normalised SPOT signal, Boehringer light units (BLU); mean over the file's lines of this peptide [2]: 412

B33: Q9UGB8 794-807 (peptide)
chain: SAHTPGRPPRVTKD
normalised SPOT signal, Boehringer light units (BLU); mean over the file's lines of this peptide [1]: 268
normalised SPOT signal, Boehringer light units (BLU); mean over the file's lines of this peptide [2]: 1950

B34: Q9NPN8 118-131 (peptide)
chain: SAKELRRPPPRSPQ
normalised SPOT signal, Boehringer light units (BLU); mean over the file's lines of this peptide [1]: 116
normalised SPOT signal, Boehringer light units (BLU); mean over the file's lines of this peptide [2]: 33.8

B35: P21453 335-348 (peptide)
chain: SAGKFKRPIIAGME
normalised SPOT signal, Boehringer light units (BLU); mean over the file's lines of this peptide [1]: 46.1
normalised SPOT signal, Boehringer light units (BLU); mean over the file's lines of this peptide [2]: 42.5

B36: P01814 35-48 (peptide)
chain: RVSWIRRPPGKALE
normalised SPOT signal, Boehringer light units (BLU); mean over the file's lines of this peptide [1]: 326
normalised SPOT signal, Boehringer light units (BLU); mean over the file's lines of this peptide [2]: 15

B37: P21918 138-151 (peptide)
chain: RYWAISRPFRYKRK
normalised SPOT signal, Boehringer light units (BLU); mean over the file's lines of this peptide [1]: 417
normalised SPOT signal, Boehringer light units (BLU); mean over the file's lines of this peptide [2]: 1070

B38: Q9UQ05 500-513 (peptide)
chain: RVHRLPRPLKQRML
normalised SPOT signal, Boehringer light units (BLU); mean over the file's lines of this peptide [1]: 121
normalised SPOT signal, Boehringer light units (BLU); mean over the file's lines of this peptide [2]: 165

B39: Q13370 310-323 (peptide)
chain: SSKIFRRPSLPSIS
normalised SPOT signal, Boehringer light units (BLU); mean over the file's lines of this peptide [1]: 40.4
normalised SPOT signal, Boehringer light units (BLU); mean over the file's lines of this peptide [2]: 12.2

B40: Q06055 26-39 (peptide)
chain: SAVVLKRPEILTDE
normalised SPOT signal, Boehringer light units (BLU); mean over the file's lines of this peptide [1]: 38.4
normalised SPOT signal, Boehringer light units (BLU); mean over the file's lines of this peptide [2]: 42.7

B41: Q10466 5697-5710 (peptide)
chain: RVIGLLRPLKDVTV
normalised SPOT signal, Boehringer light units (BLU); mean over the file's lines of this peptide [1]: 261
normalised SPOT signal, Boehringer light units (BLU); mean over the file's lines of this peptide [2]: 205

B42: Q99412 18-31 (peptide)
chain: RYLGITRPHKMLTT
normalised SPOT signal, Boehringer light units (BLU); mean over the file's lines of this peptide [1]: 231
normalised SPOT signal, Boehringer light units (BLU); mean over the file's lines of this peptide [2]: 102
